According to publication PMC12102759 (2025):

B1: PEX5 peptide 110-125 (Peroxisomal targeting signal 1 receptor), 16-mer library wild type / PEX14 Pex14 (PEX14 PEX14, residues 16-84) (parent complex)
chain 1: ADLALSENWAQEFLAA
chain 2: TPGSENVLPREPLIATAVKFLQNSRVRQSPLATRRAFLKKKGLTDEEIDMAFQQSGTAADEPSSLGPAT
B2: MXI1 peptide 6-21 (Max-interacting protein 1), 16-mer library wild type / SIN3A PAH2 (SIN3A PAH domain, residues 295-383) (parent complex)
chain 1: MINVQRLLEAAEFLER
chain 2: SLQNNQPVEFNHAINYVNKIKNRFQGQPDIYKAFLEILHTYQKEQRNAKEAGGNYTPALTEQEVYAQVARLFKNQEDLLSEFGQFLPDA

Variants of: B1
Test: proteomic peptide phage display deep mutational scan (ProP-PD DMS): M13 P8 16-mer library selected against immobilised GST-tagged bait for four days (rounds), NGS of the eluted pools per day and pseudo-replica; bait immobilised on MaxiSorp plates (10 µg), library pre-cleared on GST, 2 h binding at 4 °C, five washes; one round per day, days 1-4; value from days 2 and 3
In the case of chain 1 ADLLLSENWAQEFLAA [chain 1 A4L], the screen value is reported as 0.000672 average fractional NGS count over selection days 2 and 3 (reads of this peptide / all reads for the bait, averaged over …. chain 1 ADLALSHNWAQEFLAA [chain 1 E7H] was tested, and the screen value was 0.00742 average fractional NGS count over selection days 2 and 3 (reads of this peptide / all reads for the bait, averaged over …. For chain 1 ADPALSENWAQEFLAA [chain 1 L3P], the screen value was 0.00046 average fractional NGS count over selection days 2 and 3 (reads of this peptide / all reads for the bait, averaged over …. With chain 1 AHLALSENWAQEFLAA [chain 1 D2H] the screen value was 0.004 average fractional NGS count over selection days 2 and 3 (reads of this peptide / all reads for the bait, averaged over ….

Variants of: B2
Test: as above
With chain 1 MINVQRLLGAAEFLER [chain 1 E9G] the screen value was 0.000184 average fractional NGS count over selection days 2 and 3 (reads of this peptide / all reads for the bait, averaged over …. chain 1 MINVQRLLSAAEFLER [chain 1 E9S] was tested, and the screen value was 0.0016 average fractional NGS count over selection days 2 and 3 (reads of this peptide / all reads for the bait, averaged over …. chain 1 MINVQRLLEAATFLER [chain 1 E12T] was tested, and the screen value was 0.000504 average fractional NGS count over selection days 2 and 3 (reads of this peptide / all reads for the bait, averaged over …. For chain 1 MINVQRLLEAAHFLER [chain 1 E12H], the screen value was 0.00554 average fractional NGS count over selection days 2 and 3 (reads of this peptide / all reads for the bait, averaged over …. With chain 1 MINVQRLLEAAIFLER [chain 1 E12I] the screen value was 0.000347 average fractional NGS count over selection days 2 and 3 (reads of this peptide / all reads for the bait, averaged over …. In the case of chain 1 YINVQRLLEAAEFLER [chain 1 M1Y], the screen value is reported as 0.000304 average fractional NGS count over selection days 2 and 3 (reads of this peptide / all reads for the bait, averaged over …. For chain 1 FINVQRLLEAAEFLER [chain 1 M1F], the screen value was 0.000314 average fractional NGS count over selection days 2 and 3 (reads of this peptide / all reads for the bait, averaged over …. For chain 1 DINVQRLLEAAEFLER [chain 1 M1D], the screen value was 9.92e-05 average fractional NGS count over selection days 2 and 3 (reads of this peptide / all reads for the bait, averaged over …. For chain 1 PINVQRLLEAAEFLER [chain 1 M1P], the screen value was 0.000146 average fractional NGS count over selection days 2 and 3 (reads of this peptide / all reads for the bait, averaged over …. For chain 1 KINVQRLLEAAEFLER [chain 1 M1K], the screen value was 0.000747 average fractional NGS count over selection days 2 and 3 (reads of this peptide / all reads for the bait, averaged over …. chain 1 MINVQRWLEAAEFLER [chain 1 L7W] was tested, and the screen value was 0.00101 average fractional NGS count over selection days 2 and 3 (reads of this peptide / all reads for the bait, averaged over …. chain 1 MINVQRYLEAAEFLER [chain 1 L7Y] was tested, and the screen value was 0.00109 average fractional NGS count over selection days 2 and 3 (reads of this peptide / all reads for the bait, averaged over …. With chain 1 MINVQRLLEAAEFWER [chain 1 L14W] the screen value was 0.000239 average fractional NGS count over selection days 2 and 3 (reads of this peptide / all reads for the bait, averaged over …. For chain 1 MINVQRLLEAAEFMER [chain 1 L14M], the screen value was 0.000829 average fractional NGS count over selection days 2 and 3 (reads of this peptide / all reads for the bait, averaged over …. chain 1 MINVQRLLEAAEFYER [chain 1 L14Y] was tested, and the screen value was 0.00247 average fractional NGS count over selection days 2 and 3 (reads of this peptide / all reads for the bait, averaged over …. In the case of chain 1 MINVQALLEAAEFLER [chain 1 R6A], the screen value is reported as 0.00198 average fractional NGS count over selection days 2 and 3 (reads of this peptide / all reads for the bait, averaged over …. With chain 1 MINVQGLLEAAEFLER [chain 1 R6G] the screen value was 0.000834 average fractional NGS count over selection days 2 and 3 (reads of this peptide / all reads for the bait, averaged over …. For chain 1 MINVQRLLEAAEYLER [chain 1 F13Y], the screen value was 0.00195 average fractional NGS count over selection days 2 and 3 (reads of this peptide / all reads for the bait, averaged over …. For chain 1 MINVQRLLEAAELLER [chain 1 F13L], the screen value was 0.00028 average fractional NGS count over selection days 2 and 3 (reads of this peptide / all reads for the bait, averaged over …. In the case of chain 1 MINVQRLLEAAEQLER [chain 1 F13Q], the screen value is reported as 0.00155 average fractional NGS count over selection days 2 and 3 (reads of this peptide / all reads for the bait, averaged over …. For chain 1 MINVQRLLEAAEWLER [chain 1 F13W], the screen value was 0.00114 average fractional NGS count over selection days 2 and 3 (reads of this peptide / all reads for the bait, averaged over …. With chain 1 MINVQRLLEAAERLER [chain 1 F13R] the screen value was 0.00192 average fractional NGS count over selection days 2 and 3 (reads of this peptide / all reads for the bait, averaged over …. In the case of chain 1 MINVQRLLEAAEGLER [chain 1 F13G], the screen value is reported as 0.00169 average fractional NGS count over selection days 2 and 3 (reads of this peptide / all reads for the bait, averaged over …. chain 1 MINVQRLLEWAEFLER [chain 1 A10W] was tested, and the screen value was 0.000448 average fractional NGS count over selection days 2 and 3 (reads of this peptide / all reads for the bait, averaged over …. In the case of chain 1 MINNQRLLEAAEFLER [chain 1 V4N], the screen value is reported as 0.000273 average fractional NGS count over selection days 2 and 3 (reads of this peptide / all reads for the bait, averaged over …. chain 1 MINIQRLLEAAEFLER [chain 1 V4I] was tested, and the screen value was 0.000288 average fractional NGS count over selection days 2 and 3 (reads of this peptide / all reads for the bait, averaged over …. With chain 1 MINTQRLLEAAEFLER [chain 1 V4T] the screen value was 0.00342 average fractional NGS count over selection days 2 and 3 (reads of this peptide / all reads for the bait, averaged over …. For chain 1 MIEVQRLLEAAEFLER [chain 1 N3E], the screen value was 0.000543 average fractional NGS count over selection days 2 and 3 (reads of this peptide / all reads for the bait, averaged over …. chain 1 MIKVQRLLEAAEFLER [chain 1 N3K] was tested, and the screen value was 0.000249 average fractional NGS count over selection days 2 and 3 (reads of this peptide / all reads for the bait, averaged over …. With chain 1 MIVVQRLLEAAEFLER [chain 1 N3V] the screen value was 0.000212 average fractional NGS count over selection days 2 and 3 (reads of this peptide / all reads for the bait, averaged over …. In the case of chain 1 MENVQRLLEAAEFLER [chain 1 I2E], the screen value is reported as 0.00021 average fractional NGS count over selection days 2 and 3 (reads of this peptide / all reads for the bait, averaged over …. chain 1 MLNVQRLLEAAEFLER [chain 1 I2L] was tested, and the screen value was 0.000364 average fractional NGS count over selection days 2 and 3 (reads of this peptide / all reads for the bait, averaged over …. With chain 1 MPNVQRLLEAAEFLER [chain 1 I2P] the screen value was 0.000427 average fractional NGS count over selection days 2 and 3 (reads of this peptide / all reads for the bait, averaged over …. For chain 1 MINVQRLLEAAEFLPR [chain 1 E15P], the screen value was 0.000251 average fractional NGS count over selection days 2 and 3 (reads of this peptide / all reads for the bait, averaged over …. With chain 1 MINVQRLLEAAEFLQR [chain 1 E15Q] the screen value was 0.000842 average fractional NGS count over selection days 2 and 3 (reads of this peptide / all reads for the bait, averaged over …. For chain 1 MINVQRLLEAAEFLNR [chain 1 E15N], the screen value was 0.000504 average fractional NGS count over selection days 2 and 3 (reads of this peptide / all reads for the bait, averaged over …. In the case of chain 1 MINVQRLLEAAEFLMR [chain 1 E15M], the screen value is reported as 8.82e-05 average fractional NGS count over selection days 2 and 3 (reads of this peptide / all reads for the bait, averaged over …. For chain 1 MINVSRLLEAAEFLER [chain 1 Q5S], the screen value was 0.000556 average fractional NGS count over selection days 2 and 3 (reads of this peptide / all reads for the bait, averaged over …. For chain 1 MINVFRLLEAAEFLER [chain 1 Q5F], the screen value was 0.000275 average fractional NGS count over selection days 2 and 3 (reads of this peptide / all reads for the bait, averaged over …. With chain 1 MINVYRLLEAAEFLER [chain 1 Q5Y] the screen value was 0.00574 average fractional NGS count over selection days 2 and 3 (reads of this peptide / all reads for the bait, averaged over …. For chain 1 MINVHRLLEAAEFLER [chain 1 Q5H], the screen value was 0.00355 average fractional NGS count over selection days 2 and 3 (reads of this peptide / all reads for the bait, averaged over …. With chain 1 MINVARLLEAAEFLER [chain 1 Q5A] the screen value was 0.000986 average fractional NGS count over selection days 2 and 3 (reads of this peptide / all reads for the bait, averaged over …. In the case of chain 1 MINVQRLLEAHEFLER [chain 1 A11H], the screen value is reported as 0.000274 average fractional NGS count over selection days 2 and 3 (reads of this peptide / all reads for the bait, averaged over …. With chain 1 MINVQRLLEAEEFLER [chain 1 A11E] the screen value was 0.000155 average fractional NGS count over selection days 2 and 3 (reads of this peptide / all reads for the bait, averaged over …. For chain 1 MINVQRLLEAGEFLER [chain 1 A11G], the screen value was 0.000249 average fractional NGS count over selection days 2 and 3 (reads of this peptide / all reads for the bait, averaged over …. chain 1 MINVQRLLEAWEFLER [chain 1 A11W] was tested, and the screen value was 0.00145 average fractional NGS count over selection days 2 and 3 (reads of this peptide / all reads for the bait, averaged over …. With chain 1 MINVQRLLEAIEFLER [chain 1 A11I] the screen value was 0.000346 average fractional NGS count over selection days 2 and 3 (reads of this peptide / all reads for the bait, averaged over …. In the case of chain 1 MINVQRLHEAAEFLER [chain 1 L8H], the screen value is reported as 0.000323 average fractional NGS count over selection days 2 and 3 (reads of this peptide / all reads for the bait, averaged over …. With chain 1 MINVQRLVEAAEFLER [chain 1 L8V] the screen value was 0.000127 average fractional NGS count over selection days 2 and 3 (reads of this peptide / all reads for the bait, averaged over …. For chain 1 MINVQRLQEAAEFLER [chain 1 L8Q], the screen value was 0.000344 average fractional NGS count over selection days 2 and 3 (reads of this peptide / all reads for the bait, averaged over …. For chain 1 MINVQRLTEAAEFLER [chain 1 L8T], the screen value was 0.000156 average fractional NGS count over selection days 2 and 3 (reads of this peptide / all reads for the bait, averaged over …. chain 1 MINVQRLGEAAEFLER [chain 1 L8G] was tested, and the screen value was 0.000132 average fractional NGS count over selection days 2 and 3 (reads of this peptide / all reads for the bait, averaged over ….
